Data on three molecules can be found in patent CN117820479A (BEILAI PHARMACEUTICAL CO LTD, dated 2024).

Assay [1] deals with IL-17RA and IL-17RC co-expressed on 293F-IL-17RA-IL-17Rc-ACT1-NFκB-Luc reporter cells (UniProt Q96F46). Description: FACS on cells overexpressing IL-17RA and IL-17RC.
Assay [2] concerns the target IL-17A重组蛋白 (Human IL-17A重组蛋白, C端6×His标签) (human, UniProt Q16552 24-155, limits assumed). Description: cell-based or functional assay.
Assay [3] deals with T1, Biotin-IL-17A-His (UniProt Q16552 24-155, biotinylated (Biotin-IL-17A-His; site not stated)).
T1 construct: also called 靶蛋白; not shown: His tag
As to the kind of experiment: ELISA: antibody coated at 2 ug/mL, Biotin-IL-17A-His titrated from 10 ug/mL in 5-fold steps (7 points), HRP-streptavidin, OD450. In general terms: In an ELISA, binding on a coated surface is turned into a signal by an enzyme label.

T1 sequence (Q16552 24-155 limits assumed): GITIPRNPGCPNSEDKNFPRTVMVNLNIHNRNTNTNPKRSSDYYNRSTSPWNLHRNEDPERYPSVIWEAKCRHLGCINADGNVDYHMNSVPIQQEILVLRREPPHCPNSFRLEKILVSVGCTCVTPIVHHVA
Sequence of IL-17A重组蛋白 (Human IL-17A重组蛋白, C端6×His标签) (human, UniProt Q16552 24-155, limits assumed) (Q16552 other isoform, or with tags, fused parts or gaps limits assumed): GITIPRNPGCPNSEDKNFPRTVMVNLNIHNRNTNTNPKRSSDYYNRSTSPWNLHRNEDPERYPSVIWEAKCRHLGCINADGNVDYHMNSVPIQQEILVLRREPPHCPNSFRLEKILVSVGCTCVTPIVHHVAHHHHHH

With “IL-17A重组蛋白 (Human IL-17A重组蛋白, C端6×His标签) (from UniProt Q16552 24-155) (ligand)”, the 阳性率 in assay [1] was greater than 90%.

B1: Ixekizumab (阳性对照抗体) (antibody, human IgG4 S228P, kappa, V domains shown)
VH: QVQLVQSGAEVKKPGSSVKVSCKASGYSFTDYHIHWVRQAPGQGLEWMGVINPMYGTTDYNQRFKGRVTITADESTSTAYMELSSLRSEDTAVYYCARYDYFTGTGVYWGQGTLVTVSS
VL: DIVMTQTPLSLSVTPGQPASISCRSSRSLVHSRGNTYLHWYLQKPGQSPQLLIYKVSNRFIGVPDRFSGSGSGTDFTLKISRVEAEDVGVYYCSQSTHLPFTFGQGTKLEIKR
notes: Made in house from the variable regions cloned into pcDNA3.4-hIgG4 and pcDNA3.4-hIgKc vectors; also called 对照抗体Ixekizumab; 阳性抗体
The term EC50 denotes the midpoint of the concentration-response curve. Low values mean an effect from little substance, high ones a need for much substance. In the case of B1, the “IC50, 阻断Human IL-17A蛋白激活293F-IL-17RA-IL-17Rc-ACT1-NFκB-Luc (luciferase reporter)” value in assay [2] was determined as 1.36 µg/mL. The EC50 in assay [3] was 10.1 µg/mL.

B2: 串联抗体G12-1-F8 (IL-17A特异性串联抗体) (Fc fusion)
chain: EVQLVESGGGLVQPGGSLRLSCVAWGFSFSIYSVNWYRQAPGKERELVAGITKGGLKDYADSVKGRFTISRDNAKNAVYLRMNMLKPEDTAVYYCNAGRENGYWGQGTQVAVSTGGGGSGGGGSGGGGSEVQLVESGGGLVQPGGSLRLSCAASGFSIHIYAMGWYRQAPGKQRELVATITRGGVTNNADSVKGRFTISRDNAKNTAYLQMNSLKPEDTAVYYCNAGGTNGGYWGQGTQVTVSS
For the molecule B2, in assay [2], the “IC50, 阻断Human IL-17A蛋白激活293F-IL-17RA-IL-17Rc-ACT1-NFκB-Luc (luciferase reporter)” value was determined as 0.759 µg/mL. The same molecule showed an EC50 in assay [3] of 2.42 µg/mL.
